# Data: the Human Domainome abundance scans (Beltran et al. 2025)
# ± gives the uncertainty stated by the source.
# B1: Apoptosis-associated speck-like protein containing a CARD, residues 114 to 194; numbered along this chain, Q9ULZ3 (parent)
# chain: FIDQHRAALIARVTNVEWLLDALYGKVLTDEQYQAVRAEPTNPSKMRKLFSFTPAWNWTCKDLLLQALRESQSYLVEDLER
# Variants of: B1
# Assay: abundance fitness (aPCA) (normalised: wild type 0, dead -1); higher = more abundant; growth selection in yeast, the domain comes from the species named
# Conditions: Homo sapiens
row,Variant,abundance fitness
1,FIDQHRAALIARVTNVEWLLDALYGKVLTDEQYQAVRAEPTNPSKMRKLFSFTPAWNWTCKDILLQALRESQSYLVEDLER [L63I],-0.359 ± 0.2
2,FIDQHRAALIARVTNVEWLLDALYGKVLTDEQYQAVRAEPTNPSKMRKLFSFTPAWNWTCKDKLLQALRESQSYLVEDLER [L63K],-0.298 ± 0.11
3,FIDQHRAALIARVTNVEWLLDALYGKVLTDEQYQAVRAEPTNPSKMRKLFSFTPAWNWTCKDMLLQALRESQSYLVEDLER [L63M],0.056 ± 0.095
4,FIDQHRAALIARVTNVEWLLDALYGKVLTDEQYQAVRAEPTNPSKMRKLFSFTPAWNWTCKDNLLQALRESQSYLVEDLER [L63N],-0.556 ± 0.27
5,FIDQHRAALIARVTNVEWLLDALYGKVLTDEQYQAVRAEPTNPSKMRKLFSFTPAWNWTCKDPLLQALRESQSYLVEDLER [L63P],-0.438 ± 0.075
6,FIDQHRAALIARVTNVEWLLDALYGKVLTDEQYQAVRAEPTNPSKMRKLFSFTPAWNWTCKDQLLQALRESQSYLVEDLER [L63Q],-0.243 ± 0.098
7,FIDQHRAALIARVTNVEWLLDALYGKVLTDEQYQAVRAEPTNPSKMRKLFSFTPAWNWTCKDRLLQALRESQSYLVEDLER [L63R],-0.385 ± 0.059
8,FIDQHRAALIARVTNVEWLLDALYGKVLTDEQYQAVRAEPTNPSKMRKLFSFTPAWNWTCKDSLLQALRESQSYLVEDLER [L63S],-0.61 ± 0.099
9,FIDQHRAALIARVTNVEWLLDALYGKVLTDEQYQAVRAEPTNPSKMRKLFSFTPAWNWTCKDTLLQALRESQSYLVEDLER [L63T],-0.325 ± 0.076
10,FIDQHRAALIARVTNVEWLLDALYGKVLTDEQYQAVRAEPTNPSKMRKLFSFTPAWNWTCKDVLLQALRESQSYLVEDLER [L63V],-0.232 ± 0.055
11,FIDQHRAALIARVTNVEWLLDALYGKVLTDEQYQAVRAEPTNPSKMRKLFSFTPAWNWTCKDWLLQALRESQSYLVEDLER [L63W],-0.543 ± 0.096
12,FIDQHRAALIARVTNVEWLLDALYGKVLTDEQYQAVRAEPTNPSKMRKLFSFTPAWNWTCKDYLLQALRESQSYLVEDLER [L63Y],-0.028 ± 0.12
13,FIDQHRAALIARVTNVEWLLDALYGKVLTDEQYQAVRAEPTNPSKMRKLFSFTPAWNWTCKDLALQALRESQSYLVEDLER [L64A],-0.343 ± 0.065
14,FIDQHRAALIARVTNVEWLLDALYGKVLTDEQYQAVRAEPTNPSKMRKLFSFTPAWNWTCKDLCLQALRESQSYLVEDLER [L64C],-0.481 ± 0.15
15,FIDQHRAALIARVTNVEWLLDALYGKVLTDEQYQAVRAEPTNPSKMRKLFSFTPAWNWTCKDLDLQALRESQSYLVEDLER [L64D],-0.519 ± 0.12
16,FIDQHRAALIARVTNVEWLLDALYGKVLTDEQYQAVRAEPTNPSKMRKLFSFTPAWNWTCKDLELQALRESQSYLVEDLER [L64E],-0.944 ± 0.16
17,FIDQHRAALIARVTNVEWLLDALYGKVLTDEQYQAVRAEPTNPSKMRKLFSFTPAWNWTCKDLFLQALRESQSYLVEDLER [L64F],0.2 ± 0.11

row,Variant,abundance fitness
1,FIDQHRAALIARVTNVEWLLDALYGKVLTDEQYQAVRAEPTNPSKMRKLFSFTPAWNWTCKDLGLQALRESQSYLVEDLER [L64G],-0.695 ± 0.076
2,FIDQHRAALIARVTNVEWLLDALYGKVLTDEQYQAVRAEPTNPSKMRKLFSFTPAWNWTCKDLILQALRESQSYLVEDLER [L64I],-0.192 ± 0.15
3,FIDQHRAALIARVTNVEWLLDALYGKVLTDEQYQAVRAEPTNPSKMRKLFSFTPAWNWTCKDLKLQALRESQSYLVEDLER [L64K],-0.918 ± 0.2
4,FIDQHRAALIARVTNVEWLLDALYGKVLTDEQYQAVRAEPTNPSKMRKLFSFTPAWNWTCKDLMLQALRESQSYLVEDLER [L64M],0.163 ± 0.075
5,FIDQHRAALIARVTNVEWLLDALYGKVLTDEQYQAVRAEPTNPSKMRKLFSFTPAWNWTCKDLPLQALRESQSYLVEDLER [L64P],-1.02 ± 0.21
6,FIDQHRAALIARVTNVEWLLDALYGKVLTDEQYQAVRAEPTNPSKMRKLFSFTPAWNWTCKDLQLQALRESQSYLVEDLER [L64Q],-0.354 ± 0.19
7,FIDQHRAALIARVTNVEWLLDALYGKVLTDEQYQAVRAEPTNPSKMRKLFSFTPAWNWTCKDLSLQALRESQSYLVEDLER [L64S],-0.853 ± 0.1
8,FIDQHRAALIARVTNVEWLLDALYGKVLTDEQYQAVRAEPTNPSKMRKLFSFTPAWNWTCKDLTLQALRESQSYLVEDLER [L64T],-0.513 ± 0.09
9,FIDQHRAALIARVTNVEWLLDALYGKVLTDEQYQAVRAEPTNPSKMRKLFSFTPAWNWTCKDLVLQALRESQSYLVEDLER [L64V],-0.123 ± 0.05
10,FIDQHRAALIARVTNVEWLLDALYGKVLTDEQYQAVRAEPTNPSKMRKLFSFTPAWNWTCKDLWLQALRESQSYLVEDLER [L64W],-0.961 ± 0.2
11,FIDQHRAALIARVTNVEWLLDALYGKVLTDEQYQAVRAEPTNPSKMRKLFSFTPAWNWTCKDLYLQALRESQSYLVEDLER [L64Y],-0.75 ± 0.2
12,FIDQHRAALIARVTNVEWLLDALYGKVLTDEQYQAVRAEPTNPSKMRKLFSFTPAWNWTCKDLLAQALRESQSYLVEDLER [L65A],-0.074 ± 0.06
13,FIDQHRAALIARVTNVEWLLDALYGKVLTDEQYQAVRAEPTNPSKMRKLFSFTPAWNWTCKDLLCQALRESQSYLVEDLER [L65C],-0.248 ± 0.088
14,FIDQHRAALIARVTNVEWLLDALYGKVLTDEQYQAVRAEPTNPSKMRKLFSFTPAWNWTCKDLLDQALRESQSYLVEDLER [L65D],-0.563 ± 0.099
15,FIDQHRAALIARVTNVEWLLDALYGKVLTDEQYQAVRAEPTNPSKMRKLFSFTPAWNWTCKDLLEQALRESQSYLVEDLER [L65E],-0.142 ± 0.1
16,FIDQHRAALIARVTNVEWLLDALYGKVLTDEQYQAVRAEPTNPSKMRKLFSFTPAWNWTCKDLLFQALRESQSYLVEDLER [L65F],-0.024 ± 0.073
17,FIDQHRAALIARVTNVEWLLDALYGKVLTDEQYQAVRAEPTNPSKMRKLFSFTPAWNWTCKDLLGQALRESQSYLVEDLER [L65G],-0.611 ± 0.052
